One protein from paper PMC6745524, “Diverse roles of TssA‐like proteins in the assembly of bacterial type VI secretion systems” (The EMBO Journal, 2019) can be followed below.

The data set deals with the molecule itself. In words: cryo-EM structure.

B1: TssAVC (TssA of Vibrio cholerae, VCA0119), purified (natural protein)
chain: MEMTEYRQCVAKPISSSNPVGERLVDHPLFDFIEDQMMKVGSLSHASVQWDEVEHSTLKLLGEQSKDIKLLVYLLQCLHNQVTPTRLITSFAVMSEFLNQYWNDSYPAPGPRGNLPRRKFFSQMAQRFTTVIEKFDFHHLDEADRQALQAAVEEWQQAVEKQGLSSELVESVVVRITAEIKRAEQRQQVTAQSSAERETPSAATPSPAASMVVDHSSDKAAKQTLLKVADFLAEQEFGIALSIRLRRFAVWGSITSLPDHKPDGETLLRGMQADRVKDYQDQLRHPDLALWRKVEQSLTMAPYWFEGQWMSYTIAQQLGKSDWCQAIAEETQQFLRRLPSLLELKFKGGEPFVSDSVKEWLASVGQSQGAAGQSVGGDWQEKRKEAFQLAKEGGIAVALSMLNDGLVSAVEPRDKFYWRLLSADLLRANHLDAMAGEQYQTLLNQVTTLSVPEWEPSLVEQIQRYTTSE
notes: The His10 tag was removed with TEV protease; Only the CTD (G376-T466) is built in the atomic model; also called TsaC (proposed name); not shown: His10, N-terminal, cleaved; copies: 12
Usually stoichiometry N stands for a count of units in the complex or per binding partner. Turning to B1, the “stoichiometry N” value was found to be 12.
